This passage reports Kd results from US20220127316A1 (University of Pennsylvania, published 2022).

In this test the target is T1, recombinant human GFRα-like His-tag receptor (R&D 9647-GR-050) (human, UniProt Q6UXV0 19-351).
T1 construct: Bought protein, captured on a Pierce nickel coated plate at 0.1 µg/mL; also called GFRAL receptor; GDNF family receptor alpha-like; not shown: His-tag
T1 sequence (looked up): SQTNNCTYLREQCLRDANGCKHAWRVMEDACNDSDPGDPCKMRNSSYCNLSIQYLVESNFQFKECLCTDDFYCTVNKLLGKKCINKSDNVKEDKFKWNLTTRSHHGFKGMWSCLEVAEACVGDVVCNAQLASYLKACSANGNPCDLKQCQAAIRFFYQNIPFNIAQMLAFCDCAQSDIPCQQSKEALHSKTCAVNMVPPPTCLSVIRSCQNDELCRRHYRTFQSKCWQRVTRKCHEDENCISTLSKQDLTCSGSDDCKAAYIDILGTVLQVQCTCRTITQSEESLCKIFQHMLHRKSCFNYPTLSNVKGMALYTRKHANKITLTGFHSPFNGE
Kind of test: ELISA; His-tagged GFRAL captured on nickel coated plate, GDF15 titrated 100 to 0.005 ng/mL, detected with anti-GDF15 primary antibody. How it is done: To validate binding of the synthesized peptides to the GFRAL receptor, an ELISA assay was developed to determine the binding affinity of the peptides for their receptor. The primary antibody (Abcam ab206414) was diluted to 1 μg/mL. The secondary antibody was diluted by placing 5 μL into 10 mL assay buffer. GDF15 was run at concentrations of 100 ng/mL to 0.005 ng/mL. The recombinant human GFRα-like His-tag receptor (R&D 9647-GR-050) was added to the Pierce™ nickel coated plate (ThermoFisher Scientific 15442) at 0.1 μg/mL in a total volume of 100 μL.
Background: ELISA stands for enzyme-linked immunosorbent assay.

B1: Recombinant human GDF-15 (rhGDF15) (ligand, UniProt Q99988 197-308, looked up)
chain: ARNGDHCPLGPGRCCRLHTVRASLEDLGWADWVLSPREVQVTMCIGACPSQFRAANMHAQIKTSLHRLKPDTVPAPCCVPASYNPMVLIQKTDTGVSLQTYDDLLAKDCHCI
notes: Run at 100 ng/mL to 0.005 ng/mL in the ELISA and detected with primary antibody Abcam ab206414; also called growth and differentiation factor 15; MIC-1
The term Kd denotes a measure of binding affinity in units of concentration. As for B1, the Kd worked out at 1.03 ng/mL.
